# Results reported in ChEMBL document CHEMBL1156801, “Using NMR solvent water relaxation to investigate metalloenzyme-ligand binding interactions” (J Med Chem, 2010).
# Tests used:
# [1] = substrate: CC[C@H](C)[C@H](NC(=O)[C@H](Cc1ccc(O)cc1)NC(=O)[C@@H]1CCCN1C(=O)[C@H](C)NC(=O)[C@H](CC(C)C)NC(=O)[C@H](CCSC)NC(=O)[C@H](CCC(=O)O)NC(=O)[C@H](CC(C)C)NC(=O)[C@H](CC(=O)O)NC(=O)[C@H](CC(C)C)NC(=O)[C@@H](N)CC(=O)O)C(=O)N1CCC[C@H]1C(=O)N[C@@H](CCSC)C(=O)N[C@@H](CC(=O)O)C(=O)N[C@@H](CC(=O)O)C(=O)N[C@@H](CC(=O)O)C(=O)N[C@@H](Cc1ccccc1)C(=O)N[C@@H](CCC(N)=O)C(=O)N[C@@H](CC(C)C)C(=O)O; assay: (§1) Hydroxylation activity of human PHD2
# [2] = substrate: CC[C@H](C)[C@H](NC(=O)[C@@H](NC(=O)[C@H](CC(=O)O)NC(=O)CNC(=O)[C@H](C)NC(=O)[C@H](C)NC(=O)[C@@H]1CCCN1C(=O)[C@H](C)NC(=O)[C@H](CC(C)C)NC(=O)[C@H](CC(C)C)NC(=O)[C@@H](NC(=O)[C@H](CC(C)C)NC(=O)[C@H](C)NC(=O)[C@@H](N)CC(=O)O)[C@@H](C)O)[C@@H](C)O)C(=O)N[C@H](C(=O)N[C@@H](CO)C(=O)N[C@@H](CC(C)C)C(=O)N[C@@H](CC(=O)O)C(=O)N[C@@H](Cc1ccccc1)C(=O)O)[C@@H](C)CC; assay: as §1
protein,measurement,setting,value
"Egl nine homolog 1 (Homo sapiens), Q9GZT9 (protein) MANDSGGPGGPSPSERDRQYCELCGKMENLLRCSRCRSSFYCCKEHQRQDWKKHKLVCQGSEGALGHGVGPHQHSGPAPPAAVPPPRAGAREPRKAAARRDNASGDAAKGKVKAKPPADPAAAASPCRAAAGGQGSAVAAEAEPGKEEPPARSSLFQEKANLYPPSNTPGDALSPGGGLRPNGQTKPLPALKLALEYIVPCMNKHGICVVDDFLGKETGQQIGDEVRALHDTGKFTDGQLVSQKSDSSKDIRGDKITWIEGKEPGCETIGLLMSSMDDLIRHCNGKLGSYKINGRTKAMVACYPGNGTGYVRHVDNPNGDGRCVTCIYYLNKDWDAKVSGGILRIFPEGKAQFADIEPKFDRLLFFWSDRRNPHEVQPAYATRYAITVWYFDADERARAKVKYLTGEKGVRVELNKPSDSVGKDVF",Km,[1],37 µM
same,Km,[2],44 µM
